Values of other authors in article PMC9256694.

Biological target: IL-2 receptor beta/gamma common chain (Homo sapiens) (UniProt P14784)
Sequence of UniProt P14784 (P14784 27-240, chain 1 of 2): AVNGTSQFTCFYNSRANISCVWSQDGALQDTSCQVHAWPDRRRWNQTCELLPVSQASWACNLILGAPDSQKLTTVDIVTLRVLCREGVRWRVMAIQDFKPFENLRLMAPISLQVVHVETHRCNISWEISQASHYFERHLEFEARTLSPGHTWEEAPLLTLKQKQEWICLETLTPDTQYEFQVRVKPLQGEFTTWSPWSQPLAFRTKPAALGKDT
Sequence of UniProt P14784 (P31785 23-262, chain 2 of 2, further chain): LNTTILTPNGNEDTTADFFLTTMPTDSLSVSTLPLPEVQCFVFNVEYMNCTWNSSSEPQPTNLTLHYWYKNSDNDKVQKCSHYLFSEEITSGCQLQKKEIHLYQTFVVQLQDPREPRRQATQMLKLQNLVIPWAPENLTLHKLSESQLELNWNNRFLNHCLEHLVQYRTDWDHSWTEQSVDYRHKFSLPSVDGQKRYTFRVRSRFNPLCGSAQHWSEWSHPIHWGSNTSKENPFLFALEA

Sequence of IL-2 (P60568 21-153): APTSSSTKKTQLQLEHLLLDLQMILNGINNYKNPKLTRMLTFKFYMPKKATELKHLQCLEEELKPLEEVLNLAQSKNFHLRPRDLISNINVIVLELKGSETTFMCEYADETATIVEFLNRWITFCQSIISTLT

Kd: 1 nM
Substance: IL-2 (from UniProt P60568)
